These results are taken from article PMC6514445, “Enterococcal PcfF Is a Ribbon-Helix-Helix Protein That Recruits the Relaxase PcfG Through Binding and Bending of the oriT Sequence” (Frontiers in Microbiology, 2019).

The target of data set [1] is PcfF1-54 (RHH domain, GST tag cleaved off) (Enterococcus faecalis (plasmid pCF10)) (UniProt Q5G3N6). Kind of data set: SEC; Superdex 75 10/300 GL with molecular mass standards; PcfF1-54 after GST cleavage, absorbance at 254 nm. For orientation: In gel filtration, larger molecules generally elute earlier.
Data set [2] deals with T1, PcfF (Enterococcus faecalis plasmid pCF10, UniProt Q5G3N6 1-118).
T1 sequence: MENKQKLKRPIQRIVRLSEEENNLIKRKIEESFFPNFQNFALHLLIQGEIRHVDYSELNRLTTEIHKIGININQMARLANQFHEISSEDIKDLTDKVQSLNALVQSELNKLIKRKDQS
Description: EMSA (DNA bending); more pronounced shift than end positions; bending; EMSA: 30 nM DNA, 10 mM Tris/HCl pH 7.5, 200 mM NaCl (150 mM NaCl with PcfG), 15 min at room temperature; 20% native PAGE in TAE pH 8.0 at 4 C. The settings on record: protein: recombinant; tags: N-terminal GST, 3C-cleaved (4 extra residues left); chain copies: 2. A general note: A gel shift assay detects complexes by their altered migration in electrophoresis.

For data set [3], the target named is T1, PcfF. Kind of data set: EMSA; EMSA: 30 nM DNA, 10 mM Tris/HCl pH 7.5, 200 mM NaCl (150 mM NaCl with PcfG), 15 min at room temperature; 20% native PAGE in TAE pH 8.0 at 4 C. The settings on record: protein: recombinant; tags: N-terminal GST, 3C-cleaved (4 extra residues left); chain copies: 2; label: 5' FITC on sense strand.
In data set [4] the target is T1, PcfF. Kind of data set: EMSA (DNA bending); EMSA: 30 nM DNA, 10 mM Tris/HCl pH 7.5, 200 mM NaCl (150 mM NaCl with PcfG), 15 min at room temperature; 20% native PAGE in TAE pH 8.0 at 4 C. The settings on record: protein: recombinant; tags: N-terminal GST, 3C-cleaved (4 extra residues left); chain copies: 2.
Data set [5] deals with the molecule itself. Description: GEMMA (gas-phase electrophoretic mobility macromolecule analysis); SEC peak of wild type PcfF dialysed against 100 mM ammonium acetate pH 7.8, diluted to 0.025 mg/mL with 0.005% Tween-20.
Data set [6] deals with the molecule itself. Kind of data set: SEC; Superdex 200 10/300 GL Increase; 20 mM Tris/HCl pH 7.5, 200 mM NaCl; PcfF and its variants, self-association.
Data set [7] concerns the molecule itself. Kind of data set: crystal structure; SeMet-PcfF, sitting drop at 20°C, 0.2 M lithium sulfate, 0.1 M Bis-Tris pH 6.5, 25% PEG 3350; space group P2_(1), 4 molecules in the asymmetric unit; 1.9 Å.
The target of the next data set is PcfF I70S/R77S (Enterococcus faecalis plasmid pCF10, UniProt Q5G3N6 1-118, I70S;R77S). Description: EMSA; 100 nM protein; as wild type; EMSA: 30 nM DNA, 10 mM Tris/HCl pH 7.5, 200 mM NaCl (150 mM NaCl with PcfG), 15 min at room temperature; 20% native PAGE in TAE pH 8.0 at 4 C. Conditions: protein: recombinant; chain copies: 2; label: 5' FITC on sense strand.
The target in another data set is PcfF I70S (Enterococcus faecalis plasmid pCF10, UniProt Q5G3N6 1-118, I70S). The description is as above. Conditions: protein: recombinant; chain copies: 2; label: 5' FITC on sense strand.
For another data set, the target named is PcfF N73A/Q74A (Enterococcus faecalis plasmid pCF10, UniProt Q5G3N6 1-118, N73A;Q74A). The description is as above. Conditions: protein: recombinant; chain copies: 2; label: 5' FITC on sense strand.
A further data set deals with PcfF R77S (Enterococcus faecalis plasmid pCF10, UniProt Q5G3N6 1-118, R77S). Described as above. Conditions: protein: recombinant; chain copies: 2; label: 5' FITC on sense strand.
The target of a further data set is PcfF R13L/I14A (Enterococcus faecalis plasmid pCF10, UniProt Q5G3N6 1-118, R13L;I14A). Kind of data set: EMSA; 100 nM protein; Results also say marked decrease; EMSA: 30 nM DNA, 10 mM Tris/HCl pH 7.5, 200 mM NaCl (150 mM NaCl with PcfG), 15 min at room temperature; 20% native PAGE in TAE pH 8.0 at 4 C. Conditions: protein: recombinant; chain copies: 2; label: 5' FITC on sense strand.

A further data set concerns the target PcfF R13L (Enterococcus faecalis plasmid pCF10, UniProt Q5G3N6 1-118, R13L). The data set is described as above. Conditions: protein: recombinant; chain copies: 2; label: 5' FITC on sense strand.

“PcfF1-54 (RHH domain, GST tag cleaved off) (from UniProt Q5G3N6 1-54) (domain or fragment)”: the stoichiometry N (usually a count of units in the complex or per binding partner) in [1] came to 2.

B1: oriT middle 120 bp (dsDNA)
DNA 1: GCGAAATATTGGTACCCCATGGAATCGAGGGATCCTCTAGTCGCAACATGCTAGCATGTTGCTCCGCTTGCAAAAAGAAAAGTCGACACGCGTAGATCTGCTAGCATCGATCCATGGACT
DNA 2: AGTCCATGGATCGATGCTAGCAGATCTACGCGTGTCGACTTTTCTTTTTGCAAGCGGAGCAACATGCTAGCATGTTGCGACTAGAGGATCCCTCGATTCCATGGGGTACCAATATTTCGC
Take B1: in the data set with PcfF [2], the binding result is on record as “binds”.

B2: random 44 bp DNA (dsDNA)
DNA 1: AGTGAACTGAAAGAAGAAACACACGTTGCATGAAGAGCTATATA
DNA 2: TATATAGCTCTTCATGCAACGTGTGTTTCTTCTTTCAGTTCACT
In the case of B2, in the data set with PcfF [3], the binding result is “no binding”.

B3: oriT 3' 120 bp (dsDNA)
DNA 1: GTCTCGAGTTTAAAGATATCCAGCTGCCCGGGAGGCCTTCGCGAAATATTGGTACCCCATGGAATCGAGGGATCCTCTAGTCGCAACATGCTAGCATGTTGCTCCGCTTGCAAAAAGAAA
DNA 2: TTTCTTTTTGCAAGCGGAGCAACATGCTAGCATGTTGCGACTAGAGGATCCCTCGATTCCATGGGGTACCAATATTTCGCGAAGGCCTCCCGGGCAGCTGGATATCTTTAAACTCGAGAC
On to B3, for which the binding result with PcfF [4] is “binds”.

B4: PcfF (wild type, full length, GST tag cleaved off) (natural protein)
chain: MENKQKLKRPIQRIVRLSEEENNLIKRKIEESFFPNFQNFALHLLIQGEIRHVDYSELNRLTTEIHKIGININQMARLANQFHEISSEDIKDLTDKVQSLNALVQSELNKLIKRKDQS
notes: PcfF accessory factor encoded by plasmid pCF10 of Enterococcus faecalis; GenBank AAW51324; 118 residues, 14 kDa; Cloned in pGEX-6P-2 (BamHI/XhoI); the same is likely here; also called wt PcfF; accessory factor PcfF; source: E. coli BL21(DE3), purified (glutathione-agarose, SEC, 3C protease cleavage, second SEC, reverse purification); not shown: GST, N-terminal, cleaved
As to B4, the “stoichiometry N” value in data set [5] was ~2.

B5: PcfF Q105A (natural protein)
chain: MENKQKLKRPIQRIVRLSEEENNLIKRKIEESFFPNFQNFALHLLIQGEIRHVDYSELNRLTTEIHKIGININQMARLANQFHEISSEDIKDLTDKVQSLNALVASELNKLIKRKDQS
notes: PcfF of plasmid pCF10, Enterococcus faecalis; GenBank AAW51324; 118 residues; also called PcfF_(Q105A/W) variants; source: E. coli BL21(DE3), purified (glutathione-agarose, SEC)
With B5, the binding result in [6] is “binds”.

B6: PcfF Q105W (natural protein)
chain: MENKQKLKRPIQRIVRLSEEENNLIKRKIEESFFPNFQNFALHLLIQGEIRHVDYSELNRLTTEIHKIGININQMARLANQFHEISSEDIKDLTDKVQSLNALVWSELNKLIKRKDQS
notes: as for B5
Regarding B6, the binding result in data set [6] was “binds”.

B7: PcfF R13L (natural protein)
chain: MENKQKLKRPIQLIVRLSEEENNLIKRKIEESFFPNFQNFALHLLIQGEIRHVDYSELNRLTTEIHKIGININQMARLANQFHEISSEDIKDLTDKVQSLNALVQSELNKLIKRKDQS
notes: PcfF of plasmid pCF10, Enterococcus faecalis; GenBank AAW51324; 118 residues; source: E. coli BL21(DE3), purified (glutathione-agarose, SEC)
Turning to B7, the binding result in [6] is given as “binds”.

B8: PcfF N73A/Q74A (as run on SEC) (natural protein)
chain: MENKQKLKRPIQRIVRLSEEENNLIKRKIEESFFPNFQNFALHLLIQGEIRHVDYSELNRLTTEIHKIGINIAAMARLANQFHEISSEDIKDLTDKVQSLNALVQSELNKLIKRKDQS
notes: as for B7
For B8, the binding result in data set [6] is listed as “binds”.

B9: PcfF R13L/I14A/R16L (natural protein)
chain: MENKQKLKRPIQLAVLLSEEENNLIKRKIEESFFPNFQNFALHLLIQGEIRHVDYSELNRLTTEIHKIGININQMARLANQFHEISSEDIKDLTDKVQSLNALVQSELNKLIKRKDQS
notes: as for B7
In the case of B9, the binding result in data set [6] was “binds”.

B10: PcfF R13L/R16L (natural protein)
chain: MENKQKLKRPIQLIVLLSEEENNLIKRKIEESFFPNFQNFALHLLIQGEIRHVDYSELNRLTTEIHKIGININQMARLANQFHEISSEDIKDLTDKVQSLNALVQSELNKLIKRKDQS
notes: as for B7
For B10, the binding result in [6] is on record as “binds”.

B11: PcfF R77S (as run on SEC) (natural protein)
chain: MENKQKLKRPIQRIVRLSEEENNLIKRKIEESFFPNFQNFALHLLIQGEIRHVDYSELNRLTTEIHKIGININQMASLANQFHEISSEDIKDLTDKVQSLNALVQSELNKLIKRKDQS
notes: as for B7
Take B11: in data set [6], the binding result is recorded as “binds”.

B12: PcfF I70S/R77S (as run on SEC) (natural protein)
chain: MENKQKLKRPIQRIVRLSEEENNLIKRKIEESFFPNFQNFALHLLIQGEIRHVDYSELNRLTTEIHKIGSNINQMASLANQFHEISSEDIKDLTDKVQSLNALVQSELNKLIKRKDQS
notes: as for B7
For B12, in [6], the binding result is on record as “binds”.

B13: PcfF R16L (natural protein)
chain: MENKQKLKRPIQRIVLLSEEENNLIKRKIEESFFPNFQNFALHLLIQGEIRHVDYSELNRLTTEIHKIGININQMARLANQFHEISSEDIKDLTDKVQSLNALVQSELNKLIKRKDQS
notes: as for B7
As for B13, in [6], the binding result is on record as “binds”.

B14: Selenomethionine-derivatized PcfF (full length) (natural protein)
chain: MENKQKLKRPIQRIVRLSEEENNLIKRKIEESFFPNFQNFALHLLIQGEIRHVDYSELNRLTTEIHKIGININQMARLANQFHEISSEDIKDLTDKVQSLNALVQSELNKLIKRKDQS
modifications: selenomethionine in place of methionine
notes: PcfF accessory factor encoded by plasmid pCF10 of Enterococcus faecalis; GenBank AAW51324; 118 residues; Probably with the GST cleaved off, as for the wild type; 4 molecules in the asymmetric unit (dimer of dimers); also called SeMet-PcfF; source: E. coli BL21(DE3) in M9 minimal medium with L-selenomethionine, purified as wild type PcfF with 0.5 mM TCEP
On to B14, for which the binding result in data set [7] was “binds”.

B15: PcfF I14A (natural protein)
chain: MENKQKLKRPIQRAVRLSEEENNLIKRKIEESFFPNFQNFALHLLIQGEIRHVDYSELNRLTTEIHKIGININQMARLANQFHEISSEDIKDLTDKVQSLNALVQSELNKLIKRKDQS
notes: as for B7
For B15, the binding result in [6] is recorded as “binds”.

B16: PcfF I70S (as run on SEC) (natural protein)
chain: MENKQKLKRPIQRIVRLSEEENNLIKRKIEESFFPNFQNFALHLLIQGEIRHVDYSELNRLTTEIHKIGSNINQMARLANQFHEISSEDIKDLTDKVQSLNALVQSELNKLIKRKDQS
notes: as for B7
Take B16: the binding result in data set [6] was “binds”.

B17: PcfF R13L/I14A (natural protein)
chain: MENKQKLKRPIQLAVRLSEEENNLIKRKIEESFFPNFQNFALHLLIQGEIRHVDYSELNRLTTEIHKIGININQMARLANQFHEISSEDIKDLTDKVQSLNALVQSELNKLIKRKDQS
notes: as for B7
In the case of B17, the binding result in data set [6] was “binds”.

B18: oriT 40 bp (dsDNA)
DNA 1: TCGCAACATGCTAGCATGTTGCTCCGCTTGCAAAAAGAAA
DNA 2: TTTCTTTTTGCAAGCGGAGCAACATGCTAGCATGTTGCGA
As for B18, the binding result with PcfF I70S/R77S was “binds”; with PcfF I70S, “binds”; in the data set with PcfF N73A/Q74A, “binds”; with PcfF R77S, “binds”; with PcfF R13L/I14A it was “no binding”; with PcfF R13L, “no binding”. In the data set with PcfF [3], the dissociation constant (Kd) (commonly the constant that tells how readily two partners part at equilibrium) was ~100 nM.
